# T1: GST-Ebs1 (aa 1-591) (S. cerevisiae, UniProt Q03466 1-591)
# T1 sequence: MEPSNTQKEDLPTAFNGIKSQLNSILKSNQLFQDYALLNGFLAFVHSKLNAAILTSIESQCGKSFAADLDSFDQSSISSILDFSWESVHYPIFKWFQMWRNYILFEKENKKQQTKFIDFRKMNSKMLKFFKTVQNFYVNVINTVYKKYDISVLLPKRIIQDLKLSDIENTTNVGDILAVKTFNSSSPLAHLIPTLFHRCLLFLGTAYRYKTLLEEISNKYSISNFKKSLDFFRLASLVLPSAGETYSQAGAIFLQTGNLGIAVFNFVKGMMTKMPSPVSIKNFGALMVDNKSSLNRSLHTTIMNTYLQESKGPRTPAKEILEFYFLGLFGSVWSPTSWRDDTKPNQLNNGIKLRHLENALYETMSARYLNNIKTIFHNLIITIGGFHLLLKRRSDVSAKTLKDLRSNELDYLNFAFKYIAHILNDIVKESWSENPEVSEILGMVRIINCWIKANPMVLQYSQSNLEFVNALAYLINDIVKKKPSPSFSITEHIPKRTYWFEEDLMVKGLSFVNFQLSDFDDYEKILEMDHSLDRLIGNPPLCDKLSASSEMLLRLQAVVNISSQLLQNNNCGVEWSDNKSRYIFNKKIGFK
# T2: CBP-Upf1-HD-Ct (S. cerevisiae, UniProt P30771 221-971)
# T2 sequence: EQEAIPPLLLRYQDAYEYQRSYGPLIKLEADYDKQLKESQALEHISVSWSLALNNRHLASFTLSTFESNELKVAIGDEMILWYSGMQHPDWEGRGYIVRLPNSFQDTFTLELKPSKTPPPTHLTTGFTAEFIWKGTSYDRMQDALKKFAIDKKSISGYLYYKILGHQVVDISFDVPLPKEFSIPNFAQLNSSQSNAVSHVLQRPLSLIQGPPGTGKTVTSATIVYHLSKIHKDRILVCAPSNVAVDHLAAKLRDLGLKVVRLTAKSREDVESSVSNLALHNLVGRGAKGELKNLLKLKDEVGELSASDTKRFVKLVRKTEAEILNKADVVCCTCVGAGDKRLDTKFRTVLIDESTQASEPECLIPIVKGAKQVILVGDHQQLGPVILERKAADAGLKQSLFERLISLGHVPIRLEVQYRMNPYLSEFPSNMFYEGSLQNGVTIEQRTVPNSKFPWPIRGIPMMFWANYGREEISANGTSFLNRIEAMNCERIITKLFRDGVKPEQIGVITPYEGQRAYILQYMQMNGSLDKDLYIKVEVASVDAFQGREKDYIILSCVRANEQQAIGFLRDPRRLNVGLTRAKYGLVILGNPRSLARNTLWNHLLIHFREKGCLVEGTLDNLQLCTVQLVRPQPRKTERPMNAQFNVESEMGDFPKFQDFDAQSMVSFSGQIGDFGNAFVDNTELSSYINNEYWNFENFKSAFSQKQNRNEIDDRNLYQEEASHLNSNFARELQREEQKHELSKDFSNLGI
# T3: CBP-Upf1-HD (S. cerevisiae, UniProt P30771 221-851)
# T3 sequence: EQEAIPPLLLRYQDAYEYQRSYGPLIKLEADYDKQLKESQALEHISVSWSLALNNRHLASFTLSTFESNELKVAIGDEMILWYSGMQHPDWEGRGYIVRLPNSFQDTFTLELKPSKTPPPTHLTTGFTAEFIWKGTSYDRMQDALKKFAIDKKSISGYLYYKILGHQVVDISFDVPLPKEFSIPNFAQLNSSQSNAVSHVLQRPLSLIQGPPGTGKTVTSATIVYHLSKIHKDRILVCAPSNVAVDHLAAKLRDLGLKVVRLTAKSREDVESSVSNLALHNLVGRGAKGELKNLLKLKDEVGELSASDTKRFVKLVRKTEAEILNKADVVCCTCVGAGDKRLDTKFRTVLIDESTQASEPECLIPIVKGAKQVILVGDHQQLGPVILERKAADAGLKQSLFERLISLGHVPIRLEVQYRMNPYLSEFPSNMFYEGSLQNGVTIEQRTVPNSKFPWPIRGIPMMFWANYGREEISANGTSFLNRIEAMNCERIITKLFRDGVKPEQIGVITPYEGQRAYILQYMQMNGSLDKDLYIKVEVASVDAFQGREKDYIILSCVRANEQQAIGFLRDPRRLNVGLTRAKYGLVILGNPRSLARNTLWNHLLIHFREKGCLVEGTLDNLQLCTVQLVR
# T4: CBP-Upf1-FL (S.c. Upf1 full-length) (S. cerevisiae, UniProt P30771 1-971)
# T4 sequence: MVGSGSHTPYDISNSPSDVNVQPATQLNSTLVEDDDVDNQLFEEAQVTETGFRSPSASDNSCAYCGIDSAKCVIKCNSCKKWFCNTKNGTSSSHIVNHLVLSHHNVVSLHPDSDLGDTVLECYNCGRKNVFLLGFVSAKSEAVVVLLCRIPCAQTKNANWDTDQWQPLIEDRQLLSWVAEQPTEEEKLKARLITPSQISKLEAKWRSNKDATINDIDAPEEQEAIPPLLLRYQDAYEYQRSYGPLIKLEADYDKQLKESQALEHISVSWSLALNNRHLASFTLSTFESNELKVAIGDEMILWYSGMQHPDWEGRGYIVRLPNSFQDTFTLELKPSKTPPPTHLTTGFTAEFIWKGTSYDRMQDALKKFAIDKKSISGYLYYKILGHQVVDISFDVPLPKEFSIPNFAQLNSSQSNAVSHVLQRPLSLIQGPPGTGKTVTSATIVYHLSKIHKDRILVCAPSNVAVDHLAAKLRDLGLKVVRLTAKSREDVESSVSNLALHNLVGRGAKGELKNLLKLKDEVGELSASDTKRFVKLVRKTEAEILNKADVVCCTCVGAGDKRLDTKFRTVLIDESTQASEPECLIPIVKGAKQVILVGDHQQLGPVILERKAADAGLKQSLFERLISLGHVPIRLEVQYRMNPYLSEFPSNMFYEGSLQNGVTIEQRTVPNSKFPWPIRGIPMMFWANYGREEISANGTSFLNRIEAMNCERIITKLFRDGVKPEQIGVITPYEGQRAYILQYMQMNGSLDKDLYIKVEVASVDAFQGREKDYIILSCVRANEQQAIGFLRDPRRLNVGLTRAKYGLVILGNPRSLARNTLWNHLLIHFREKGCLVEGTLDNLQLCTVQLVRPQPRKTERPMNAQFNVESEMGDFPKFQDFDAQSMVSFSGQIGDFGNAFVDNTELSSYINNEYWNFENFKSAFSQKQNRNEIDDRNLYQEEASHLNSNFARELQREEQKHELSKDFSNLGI
# T5: CBP-Upf1-CH-HD (S. cerevisiae, UniProt P30771 54-851)
# T5 sequence: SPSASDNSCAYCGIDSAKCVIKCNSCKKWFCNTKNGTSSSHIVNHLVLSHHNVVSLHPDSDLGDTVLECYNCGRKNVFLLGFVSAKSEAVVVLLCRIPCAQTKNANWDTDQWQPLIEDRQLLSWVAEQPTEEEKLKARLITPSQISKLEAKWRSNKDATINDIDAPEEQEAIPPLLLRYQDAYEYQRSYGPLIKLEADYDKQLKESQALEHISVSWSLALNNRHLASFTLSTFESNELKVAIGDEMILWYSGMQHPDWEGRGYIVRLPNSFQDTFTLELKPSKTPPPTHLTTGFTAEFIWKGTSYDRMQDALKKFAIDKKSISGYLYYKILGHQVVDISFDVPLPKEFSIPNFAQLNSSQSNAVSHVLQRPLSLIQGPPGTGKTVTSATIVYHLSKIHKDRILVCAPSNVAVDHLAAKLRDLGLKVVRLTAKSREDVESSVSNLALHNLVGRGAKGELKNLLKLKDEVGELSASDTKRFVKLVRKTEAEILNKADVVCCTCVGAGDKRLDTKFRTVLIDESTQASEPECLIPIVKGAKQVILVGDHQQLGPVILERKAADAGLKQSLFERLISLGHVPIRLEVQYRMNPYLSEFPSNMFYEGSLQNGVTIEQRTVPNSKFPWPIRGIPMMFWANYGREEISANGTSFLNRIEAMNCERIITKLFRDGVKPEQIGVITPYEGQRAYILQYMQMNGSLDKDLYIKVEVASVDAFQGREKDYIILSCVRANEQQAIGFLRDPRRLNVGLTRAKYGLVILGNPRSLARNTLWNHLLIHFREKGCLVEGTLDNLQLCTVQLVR
# B1: CBP-Upf1-Ct (domain or fragment)
# chain: PQPRKTERPMNAQFNVESEMGDFPKFQDFDAQSMVSFSGQIGDFGNAFVDNTELSSYINNEYWNFENFKSAFSQKQNRNEIDDRNLYQEEASHLNSNFARELQREEQKHELSKDFSNLGI
# B2: TS-Nmd4-His (full-length Nmd4, aa 1-218) (natural protein)
# chain: MTQYNFIIDASAFEKGLGNIKRWCSDCTEAVTLNFYIPTFTLNELDFLQQRRKSFAARESLKFIDRLDDSKFANLKVFIEFPEVLDIILWSDVMEHNDSSGKINIAKLPKRLKNLLKSCIYKCYLEGNEGLHWFLISEDPQIREMAMQCNIPSCSIVDVDSILSKDMNDKSFRESEKFNNMMLKNGTKEESENGREIIRTNFNKTVYASRGTGELWSP
# B3: GST-Dcp1/Dcp2-S heterodimer (complex)
# chain 1: MTGAATAAENSATQLEFYRKALNFNVIGRYDPKIKQLLFHTPHASLYKWDFKKDEWNKLEYQGVLAIYLRDVSQNTNLLPVSPQEVDIFDSQNGSNNIQVNNGSDNSNRNSSGNGNSYKSNDSLTYNCGKTLSGKDIYNYGLIILNRINPDNFSMGIVPNSVVNKRKVFNAEEDTLNPLECMGVEVKDELVIIKNLKHEVYGIWIHTVSDRQNIYELIKYLLENEPKDSFA
# chain 2: MSLPLRHALENVTSVDRILEDLLVRFIINCPNEDLSSVERELFHFEEASWFYTDFIKLMNPTLPSLKIKSFAQLIIKLCPLVWKWDIRVDEALQQFSKYKKSIPVRGAAIFNENLSKILLVQGTESDSWSFPRGKISKDENDIDCCIREVKEEIGFDLTDYIDDNQFIERNIQGKNYKIFLISGVSEVFNFKPQVRNEIDKIEWFDFKKISKTMYKSNIKYYLINSMMRPLSMWLRHQRQIKNEDQLKSYAEEQLKLLLGITKEEQIDPGRELLNMLHTAVQANSNNNAVSNGQVPSSQELQHLKEQSGEHNQQK
# Experiments:
# [1] = molecular target: FITC-labeled Dcp2-UBM2 peptide (aa 694-718) (S. cerevisiae) (UniProt P53550); test: fluorescence polarisation
# Sequence of FITC-labeled Dcp2-UBM2 peptide (aa 694-718) (S. cerevisiae) (P53550 694-718): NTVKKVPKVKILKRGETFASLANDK
# [2] = molecular target: FITC-labeled Dcp2-UBM1 peptide (aa 456-479) (S. cerevisiae) (UniProt P53550); test: fluorescence polarisation
# Sequence of FITC-labeled Dcp2-UBM1 peptide (aa 456-479) (S. cerevisiae) (P53550 456-479): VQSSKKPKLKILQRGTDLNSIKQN
# [3] = molecular target: CBP-Upf1-CH-His (S. cerevisiae); test: SDS-PAGE band identified by Western blotting and mass spectrometry
# GST-Ebs1 (aa 1-591) = molecular target: T1, GST-Ebs1 (aa 1-591); test: pull-down
# CBP-Upf1-HD-Ct = molecular target: T2, CBP-Upf1-HD-Ct; test: pull-down
# CBP-Upf1-HD = molecular target: T3, CBP-Upf1-HD; test: pull-down
# [4] = molecular target: T4, CBP-Upf1-FL (S.c. Upf1 full-length); test: pull-down
# CBP-Upf1-CH-HD = molecular target: T5, CBP-Upf1-CH-HD; test: pull-down
Molecule,Kd [1] [µM],Kd [2] [µM],stoichiometry N [3],binding result (GST-Ebs1 (aa 1-591)),binding result (CBP-Upf1-HD-Ct),binding result (CBP-Upf1-HD),binding result [4],binding result (CBP-Upf1-CH-HD)
CBP-Upf1-CH-His (domain or fragment),25.1,60.1,2,–,–,–,–,–
B1,–,–,–,binds,–,–,–,–
B2,–,–,–,–,binds,binds,binds,binds
B3,–,–,–,–,binds,binds,binds,binds

# Reference: PMC11897886 (Nucleic Acids Research, 2024)
